Reference: patent publication US20020009726A1 (LA JOLLA CANCER RESEARCH FOUNDATION, published 2002)

Legend:
[1] = biological target: T1, LexA fusion of Bcl-2 (positions 83-218) (UniProt P0A7C2 1-202; P10415 83-218); test: yeast two-hybrid, growth on histidine-deficient medium (HIS3 reporter)
T1 construct: also called Bcl-2 (83-218)
Experimental: (§1) The 166 clones were cured of LexA/CD40-encoding plasmids by growing the cells in tryptophan-containing medium. […] The mated cells were selected for growth in medium lacking tryptophan and leucine to obtain cells that contained both a pACT-B cell clone and a LexA-fusion protein. Colonies were transferred to histidine-deficient plates or histidine-containing media with X-Gal. Colonies expressing β-gal activity were identified using a plate assay and a filter assay. The plate assay was performed on the X-Gal containing plates -12 hr after plating according to previous methods (see Chien et al., Proc. Natl. Acad. Sci., USA 88:9578-9582 (1991), which is incorporated herein by reference). The β-gal filter assay was performed after 1 hr culture as described previously (Sato et al., supra, 1994; Breeden and Nasmyth, Cold Spring Harbor Symp. Quant. biol. 50:643-650 (1985), which is incorporated herein by reference).

[2] = biological target: LexA fusion of Ha-Ras (V12) (UniProt P0A7C2 1-202; P01112 1-189, limits assumed); test: as above
Experimental: as §1

LexA fusion of Lamin-C = biological target: T2, LexA fusion of Lamin-C (UniProt P0A7C2 1-202; P02545 66-230); test: yeast two-hybrid, beta-galactosidase (lacZ reporter)
T2 sequence (looked up): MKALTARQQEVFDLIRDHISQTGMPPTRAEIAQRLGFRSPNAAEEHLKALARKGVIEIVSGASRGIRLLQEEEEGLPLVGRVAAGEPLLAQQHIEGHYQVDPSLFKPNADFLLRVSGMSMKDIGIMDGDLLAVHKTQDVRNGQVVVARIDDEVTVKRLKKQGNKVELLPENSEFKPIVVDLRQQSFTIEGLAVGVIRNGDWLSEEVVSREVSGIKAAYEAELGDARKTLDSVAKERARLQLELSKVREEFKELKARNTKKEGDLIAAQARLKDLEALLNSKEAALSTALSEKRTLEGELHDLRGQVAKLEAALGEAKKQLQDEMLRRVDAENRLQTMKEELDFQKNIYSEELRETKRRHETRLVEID
Experimental: as §1

Measured: binding result

B1: CAP-1 (pACT2229/GAL4 fusion) (other, not shown: small tags and cut ends)
chain: HDQMLSVHDIRLADMDLRFQVLETASYNGVLIWKIRDYKRRKQEAVMGKTLSLYSQPFYTGYFGYKMCARVYLNGDGMGKGTHLSLFFVIMRGEYDALLPWPFKQKVTLMLMDQGSSRRHLGDAFKPDPNSSSFKKPTGEMNIASGCPVFVAQTVLENGTYIKDDTIFIKVIVDTSDLPDP
notes: Yeast two-hybrid prey; also called pACT121; CD40 associated protein-1
no binding: all assays above
